From paper PMC8280134, “Broadly cross-reactive human antibodies that inhibit genogroup I and II noroviruses” (Nature Communications, 2021)

Tests used:
Assay in all cases: ELISA; indirect ELISA; VLP coated at 1 µg/mL on 384-well plates at 4 °C overnight, blocked with 5% nonfat dry milk in PBS with 0.05% Tween-20; mAb normalised for antigen-binding sites, from 500 nM with 11 serial dilutions; detection with anti-κ or -λ secondary antibodies
Settings in all cases: both partners purified
[1] = biological target: T1, HuNoV GII.13 virus-like particle (Norovirus Hu/GII.13/VA173/2010/USA, strain)
T1 construct: also called GII.13 VLP
T1 chain: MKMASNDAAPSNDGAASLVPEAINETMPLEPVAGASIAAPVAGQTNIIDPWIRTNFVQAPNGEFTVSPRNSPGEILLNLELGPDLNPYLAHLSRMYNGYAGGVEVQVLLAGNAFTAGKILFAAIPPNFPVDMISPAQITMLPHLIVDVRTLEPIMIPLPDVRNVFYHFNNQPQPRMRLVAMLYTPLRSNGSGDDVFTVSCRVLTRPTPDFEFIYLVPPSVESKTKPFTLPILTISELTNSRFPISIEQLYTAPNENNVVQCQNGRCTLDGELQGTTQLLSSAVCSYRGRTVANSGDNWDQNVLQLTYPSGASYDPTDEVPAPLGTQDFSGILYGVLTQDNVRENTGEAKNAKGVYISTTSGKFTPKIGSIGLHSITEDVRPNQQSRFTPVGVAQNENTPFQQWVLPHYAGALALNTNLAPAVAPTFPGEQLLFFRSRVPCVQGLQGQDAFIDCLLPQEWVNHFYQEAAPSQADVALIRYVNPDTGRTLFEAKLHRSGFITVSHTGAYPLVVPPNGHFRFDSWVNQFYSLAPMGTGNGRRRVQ

[2] = biological target: T2, HuNoV GII.6 virus-like particle (Norwalk-like virus …, UniProt Q918A7, strain)
T2 construct: also called GII.6 VLP

[3] = biological target: T3, HuNoV GII.17 virus-like particle (Norovirus …, strain)
T3 construct: also called GII.17 VLP
T3 chain: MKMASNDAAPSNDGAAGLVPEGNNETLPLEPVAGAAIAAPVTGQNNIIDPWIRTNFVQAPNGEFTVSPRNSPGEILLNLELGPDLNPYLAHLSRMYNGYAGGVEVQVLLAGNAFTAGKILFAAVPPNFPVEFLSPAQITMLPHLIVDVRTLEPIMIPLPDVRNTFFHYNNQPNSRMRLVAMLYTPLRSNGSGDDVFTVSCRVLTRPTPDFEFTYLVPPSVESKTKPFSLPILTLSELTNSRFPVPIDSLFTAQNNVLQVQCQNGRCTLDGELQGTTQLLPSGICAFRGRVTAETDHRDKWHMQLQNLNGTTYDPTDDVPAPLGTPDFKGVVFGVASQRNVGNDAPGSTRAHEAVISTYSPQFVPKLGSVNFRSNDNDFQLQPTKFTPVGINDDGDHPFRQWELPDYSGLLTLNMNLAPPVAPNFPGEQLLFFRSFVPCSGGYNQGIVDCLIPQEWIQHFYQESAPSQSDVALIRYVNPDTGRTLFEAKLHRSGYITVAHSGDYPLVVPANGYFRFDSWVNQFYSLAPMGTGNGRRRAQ

[4] = biological target: T4, HuNoV GII.3 virus-like particle (Norovirus Hu/GII.3/TCH-104/USA/2002 …, UniProt S4VLU9, strain)
T4 construct: also called GII.3 VLP

Measured: binding result

B1: NORO-320 IgA (hybridoma-secreted dimeric IgA) (antibody, V domains shown)
VH: QVQLVQSGPEVKKPGSSVKVSCKASGGTVSSYAISWVRQAPGQGLEWMGGIIPIFDTTNYAQKFQGRVTITADESTGTSDMELSSLRSEDTAVYYCARDRVPSYSPSRRFSTKGAMWGKYGMDVWGQGTLVTVSS
VL: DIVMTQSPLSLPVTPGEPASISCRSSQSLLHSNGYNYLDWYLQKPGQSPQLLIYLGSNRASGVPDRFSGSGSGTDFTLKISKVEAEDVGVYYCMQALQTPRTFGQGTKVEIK
notes: also called mAb NORO-320; Hyb dimeric IgA
binds: all assays above
